Our source for the Kd values is publication doi:10.1101/2020.03.10.985069 (2020).

For experiment [1], the target named is high affinity IL-10 monomer R5A11M, recombinant (human (by the printed UniProt entry …, UniProt P22301 19-178)). The experiment in a line: SPR.
Experiment [2] deals with IL-10 variant A11, recombinant monomer (human (by the printed UniProt entry …, UniProt P22301 19-178)). Description: SPR. A general note: Surface plasmon resonance follows binding to a sensor surface in real time, without labels.
Experiment [3] addresses IL-10 variant B11, recombinant monomer (human (by the printed UniProt entry …, UniProt P22301 19-178)). Description: SPR.
The target in a further experiment is R5A11/IL-10Rα complex (human (by the printed UniProt entry …, UniProt P22301 19-178; Q13651 22-235). Description: SPR; pre-bound to IL-10Rα.
Another experiment deals with B11/IL-10Rα complex (human (by the printed UniProt entry …, UniProt P22301 19-178; Q13651 22-235). The experiment in a line: SPR; pre-bound to IL-10Rα.
The next experiment has as its target A11/IL-10Rα complex (human (by the printed UniProt entry …, UniProt P22301 19-178; Q13651 22-235). The experiment in a line: SPR; pre-bound to IL-10Rα.

B1: IL-10Rβ ectodomain (amino acids 20-220), biotinylated (receptor)
chain: MVPPPENVRMNSVNFKNILQWESPAFAKGNLTFTAQYLSYRIFQDKCMNTTLTECDFSSLSKYGDHTLRVRAEFADEHSDWVNITFCPVDDTIIGPPGMQVEVLADSLHMRFLAPKIENEYETWTMKNVYNSWTYNVQYWKNGTDEKFQITPQYDFEVLRNLEPWTTYCVQVRGFLPDRNKAGEWSEPVCEQTTHDETVPS
modifications: biotin on the biotin acceptor peptide (BirA ligase)
For B1, the dissociation constant Kd in experiment [1] was 8.9 µM; in experiment [2] it was 2.4 µM; in experiment [3], 9.4 µM; in the experiment with R5A11/IL-10Rα complex, 0.1 µM; in the experiment with B11/IL-10Rα complex, 0.065 µM; in the experiment with A11/IL-10Rα complex, 0.023 µM.

What is called Kd is the concentration at which binding is half-saturated.
